Eight molecules from patent US7902330 can be followed below.

Data set [1] has as its target protein kinase C δ, Q05655. The data set can be described thus: cell-based or functional assay.
Data set [2] addresses T1, acetyl-Pro-Arg-Lys-Arg-Glu-Gly-Ser-Val-Arg-Arg-Arg-NH2.
T1 chain: PRKREGSVRRR

Data set [3] deals with a subset of other PKCs. The data set can be described thus: cell-based or functional assay.
The target of data set [4] is other PKC isoforms. The data set can be described thus: cell-based or functional assay.

Starred links: 1 amine or outer side, 2 acyl side, 3 side chain; linkers in the order of their positions; H or OH if unused. Non-standard residues stand in square brackets, D forms with d. No end group written: not given here. *: point of attachment. 4‑nitrohippuryl = O=C(NCC(=O)*)c1ccc([N+](=O)[O-])cc1; Benzoyl(4-(pyrrol-1-yl)) = O=C(c1ccc(-n2cccc2)cc1)*; bis(2,3-dihydroxybenzyl) = not defined here; 10‑hydroxydecanoyl = O=C(CCCCCCCCCO)*; Cysteamide = C(CS[*:3])N[*:1]; Dap = NC[C@H](N)C(=O)O

Molecule Ac-RRQG[Dap](Ac)FMYF-Cysteamide [Compound A (diacetylated consensus derivative)] yielded an IC50, PKC kinase assay in data set [1] of 50 µM.
In data set [1], {bis(2,3-dihydroxybenzyl)}-RRQG[Dap](4‑nitrohippuryl)FMYF-Cysteamide (reading uncertain) [Compound G (doubly alkylated analogue of F)] displayed a Fold selectivity (IC50), PKC ζ = 1 of 693 fold and an IC50, PKC kinase assay (33P, peptide substrate) of 5.2 µM.

B1: protein kinase C ε (protein)
chain: MVVFNGLLKIKICEAVSLKPTAWSLRHAVGPRPQTFLLDPYIALNVDDSRIGQTATKQKTNSPAWHDEFVTDVCNGRKIELAVFHDAPIGYDDFVANCTIQFEELLQNGSRHFEDWIDLEPEGRVYVIIDLSGSSGEAPKDNEERVFRERMRPRKRQGAVRRRVHQVNGHKFMATYLRQPTYCSHCRDFIWGVIGKQGYQCQVCTCVVHKRCHELIITKCAGLKKQETPDQVGSQRFSVNMPHKFGIHNYKVPTFCDHCGSLLWGLLRQGLQCKVCKMNVHRRCETNVAPNCGVDARGIAKVLADLGVTPDKITNSGQRRKKLIAGAESPQPASGSSPSEEDRSKSAPTSPCDQEIKELENNIRKALSFDNRGEEHRAASSPDGQLMSPGENGEVRQGQAKRLGLDEFNFIKVLGKGSFGKVMLAELKGKDEVYAVKVLKKDVILQDDDVDCTMTEKRILALARKHPYLTQLYCCFQTKDRLFFVMEYVNGGDLMFQIQRSRKFDEPRSRFYAAEVTSALMFLHQHGVIYRDLKLDNILLDAEGHCKLADFGMCKEGILNGVTTTTFCGTPDYIAPEILQELEYGPSVDWWALGVLMYEMMAGQPPFEADNEDDLFESILHDDVLYPVWLSKEAVSILKAFMTKNPHKRLGCVASQNGEDAIKQHPFFKEIDWVLLEQKKIKPPFKPRIKTKRDVNNFDQDFTREEPVLTLVDEAIVKQINQEEFKGFSYFGEDLMP
On to B1, for which the “Km of the peptide substrate” value in data set [2] is reported as 5.9 µM (PKCε).

B2: Compound C (peptide)
peptide: Ac-RRQG[Dap](4‑nitrohippuryl)FMYF-Cysteamide
SMILES: CSCC[C@H](NC(=O)[C@H](Cc1ccccc1)NC(=O)[C@H](CNC(=O)CNC(=O)c1ccc([N+](=O)[O-])cc1)NC(=O)CNC(=O)[C@H](CCC(N)=O)NC(=O)[C@H](CCCNC(=N)N)NC(=O)[C@H](CCCNC(=N)N)NC(C)=O)C(=O)N[C@@H](Cc1ccc(O)cc1)C(=O)N[C@@H](Cc1ccccc1)C(=O)NCCS
With B2, the selectivity for PKC ζ versus a subset of other PKCs in data set [3] was less than 10 fold.
The molecule ARRGALR[Dap](Benzoyl(4-(pyrrol-1-yl)))A-Cysteamide (also: further groups not given here) [compound 6 (primary lead from library IV)] registered a selectivity for PKCα versus this isoform in data set [1] of 2730 fold.
Ac-ARRGALR[Dap](Benzoyl(4-(pyrrol-1-yl)))A-Cysteamide [compound 3 (lead from library III)]: in data set [4], the selectivity for PKCα versus other PKC isoforms was less than 3 fold.
With H-RRQG[Dap]FMYF-Cysteamide (not fully specified (residue 5)) [Compound E (nonacylated free amine)], in data set [1], the IC50, PKC kinase assay (33P, peptide substrate) was 0.025 µM and the Selectivity (IC50 relative to PKC βI = 1) was determined as 3.1 fold.
In turn, Ac-RRQG[Dap](10‑hydroxydecanoyl)FMYF-Cysteamide [Compound B] registered a selectivity for PKC ζ versus a subset of other PKCs in data set [3] of less than 10 fold.
